Results published in patent publication US8158376B2, “Bisubstrate fluorescent probe binding to protein kinases” (University of Tartu, priority 2006, dated 2012).
Like-named read-outs stand apart in the source and are kept apart here.

Legend:
Test in all cases: Kinase selectivity panel
Format in all cases: biochemical
PKD1 = molecular target: T1, PKD1 (Homo sapiens, UniProt Q15139); settings: for remaining activity at 1 µM: read-out: residual activity (%) PKD1
T1 sequence (Q15139 1-912): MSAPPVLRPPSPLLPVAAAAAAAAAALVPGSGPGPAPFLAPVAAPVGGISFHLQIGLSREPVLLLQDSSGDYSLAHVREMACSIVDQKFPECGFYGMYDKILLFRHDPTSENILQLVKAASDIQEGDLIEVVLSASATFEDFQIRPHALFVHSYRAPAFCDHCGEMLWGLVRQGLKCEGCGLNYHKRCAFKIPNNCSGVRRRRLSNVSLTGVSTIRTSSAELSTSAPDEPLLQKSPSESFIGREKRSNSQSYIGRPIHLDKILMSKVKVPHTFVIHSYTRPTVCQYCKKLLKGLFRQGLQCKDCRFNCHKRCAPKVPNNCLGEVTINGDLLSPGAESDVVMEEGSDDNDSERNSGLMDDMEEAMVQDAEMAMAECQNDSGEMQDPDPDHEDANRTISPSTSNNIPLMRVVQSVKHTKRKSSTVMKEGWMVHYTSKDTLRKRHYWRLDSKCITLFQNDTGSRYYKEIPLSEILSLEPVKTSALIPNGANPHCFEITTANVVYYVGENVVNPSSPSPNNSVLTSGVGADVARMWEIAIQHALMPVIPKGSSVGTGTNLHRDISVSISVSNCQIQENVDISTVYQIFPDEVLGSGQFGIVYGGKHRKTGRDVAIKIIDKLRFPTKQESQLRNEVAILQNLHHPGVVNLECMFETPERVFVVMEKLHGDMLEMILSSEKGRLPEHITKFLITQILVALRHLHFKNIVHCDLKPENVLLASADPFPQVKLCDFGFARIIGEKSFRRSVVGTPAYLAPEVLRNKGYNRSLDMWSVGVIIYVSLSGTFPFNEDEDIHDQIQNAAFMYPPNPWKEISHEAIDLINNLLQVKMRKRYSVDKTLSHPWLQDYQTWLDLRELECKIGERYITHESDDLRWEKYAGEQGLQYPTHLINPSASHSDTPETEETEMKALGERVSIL
Procedure: (§1) The panel of kinases included all 52 kinases available for testing.
(§2) The assay of protein kinases was performed at 30° C. as described previously [Davies et al., Biochem. J. 351 (2000) 95; Murray et al., Biochem. J. 384 (2004) 477].

NEK6 = NEK6 (Homo sapiens, UniProt Q9HC98); settings: read-out: residual activity (%) NEK6
Procedure: as §1, §2

NEK7 = NEK7 (Homo sapiens, UniProt Q8TDX7); settings: read-out: residual activity (%) NEK7
Procedure: as §1, §2

Aurora B = Aurora B (Homo sapiens, UniProt Q96GD4); settings: read-out: residual activity (%) Aurora B
Procedure: as §1, §2

MARK3 = MARK3 (Homo sapiens, UniProt P27448); settings: read-out: residual activity (%) MARK3
Procedure: as §1, §2

PKCa = PKCa (Homo sapiens, UniProt P17252); settings: read-out: residual activity (%) PKCa
Procedure: as §1, §2

NEK2a = molecular target: T2, NEK2a (Homo sapiens, UniProt P51955); settings: read-out: residual activity (%) NEK2a
T2 sequence (P51955 1-445): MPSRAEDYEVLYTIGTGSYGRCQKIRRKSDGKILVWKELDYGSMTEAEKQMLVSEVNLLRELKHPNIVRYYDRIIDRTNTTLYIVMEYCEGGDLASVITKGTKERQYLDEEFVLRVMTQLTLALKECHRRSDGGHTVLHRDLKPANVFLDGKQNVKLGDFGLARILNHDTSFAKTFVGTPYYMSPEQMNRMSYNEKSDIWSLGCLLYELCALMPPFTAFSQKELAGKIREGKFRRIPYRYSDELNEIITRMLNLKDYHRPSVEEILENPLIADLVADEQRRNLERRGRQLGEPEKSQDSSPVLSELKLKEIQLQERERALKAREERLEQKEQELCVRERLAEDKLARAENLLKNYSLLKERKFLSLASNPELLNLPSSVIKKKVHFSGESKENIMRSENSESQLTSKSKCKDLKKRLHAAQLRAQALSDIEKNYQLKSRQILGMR
Procedure: as §1, §2

SRPK1 = SRPK1 (Homo sapiens, UniProt Q96SB4); settings: read-out: residual activity (%) SRPK1
Procedure: as §1, §2

JNK3 = JNK3 (Homo sapiens, UniProt P53779); settings: read-out: residual activity (%) JNK3
Procedure: as §1, §2

PRK2 = PRK2 (Homo sapiens, UniProt Q16513); settings: read-out: residual activity (%) PRK2
Procedure: as §1, §2

MAPKAP-K1b/rsk-2 = MAPKAP-K1b/rsk-2 (Homo sapiens, UniProt P51812); settings: ATP 50 μM
Procedure: as §1, §2

CHK1 = molecular target: T3, CHK1 (Homo sapiens, UniProt O14757); settings: read-out: residual activity (%) CHK1
T3 sequence (O14757 1-476): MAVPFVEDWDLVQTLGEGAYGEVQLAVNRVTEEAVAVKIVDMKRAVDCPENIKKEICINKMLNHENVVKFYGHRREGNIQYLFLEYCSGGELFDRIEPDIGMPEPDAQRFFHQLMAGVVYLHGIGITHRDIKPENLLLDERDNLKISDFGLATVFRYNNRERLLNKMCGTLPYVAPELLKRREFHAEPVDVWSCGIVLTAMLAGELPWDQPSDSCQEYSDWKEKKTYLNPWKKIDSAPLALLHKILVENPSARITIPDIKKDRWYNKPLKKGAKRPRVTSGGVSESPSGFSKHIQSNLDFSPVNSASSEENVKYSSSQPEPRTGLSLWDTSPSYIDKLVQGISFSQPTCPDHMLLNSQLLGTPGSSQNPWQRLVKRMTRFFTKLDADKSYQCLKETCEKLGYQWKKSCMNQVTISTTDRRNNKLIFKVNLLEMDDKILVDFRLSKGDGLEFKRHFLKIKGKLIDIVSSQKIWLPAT
Procedure: as §1, §2

Chain of MAPKAP-K1b/rsk-2 (P51812 whole entry): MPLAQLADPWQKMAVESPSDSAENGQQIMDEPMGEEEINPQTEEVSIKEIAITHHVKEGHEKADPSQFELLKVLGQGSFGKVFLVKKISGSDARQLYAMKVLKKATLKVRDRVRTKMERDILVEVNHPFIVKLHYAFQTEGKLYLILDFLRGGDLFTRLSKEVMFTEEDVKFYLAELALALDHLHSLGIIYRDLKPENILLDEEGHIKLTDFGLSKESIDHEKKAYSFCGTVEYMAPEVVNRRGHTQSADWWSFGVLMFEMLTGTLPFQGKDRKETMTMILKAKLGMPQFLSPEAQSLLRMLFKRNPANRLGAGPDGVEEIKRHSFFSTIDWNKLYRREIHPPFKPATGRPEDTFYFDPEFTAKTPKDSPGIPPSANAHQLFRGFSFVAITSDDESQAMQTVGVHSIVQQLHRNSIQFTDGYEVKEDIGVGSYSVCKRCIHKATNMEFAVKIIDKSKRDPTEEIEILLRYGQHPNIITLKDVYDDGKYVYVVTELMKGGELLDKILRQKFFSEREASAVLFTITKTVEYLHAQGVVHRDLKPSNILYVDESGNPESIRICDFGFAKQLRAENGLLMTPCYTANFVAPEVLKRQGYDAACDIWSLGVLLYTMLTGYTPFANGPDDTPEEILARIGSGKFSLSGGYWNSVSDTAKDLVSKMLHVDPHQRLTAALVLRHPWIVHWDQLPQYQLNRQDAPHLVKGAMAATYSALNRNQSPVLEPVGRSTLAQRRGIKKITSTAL
Chain of NEK7 (Q8TDX7 whole entry, species assumed): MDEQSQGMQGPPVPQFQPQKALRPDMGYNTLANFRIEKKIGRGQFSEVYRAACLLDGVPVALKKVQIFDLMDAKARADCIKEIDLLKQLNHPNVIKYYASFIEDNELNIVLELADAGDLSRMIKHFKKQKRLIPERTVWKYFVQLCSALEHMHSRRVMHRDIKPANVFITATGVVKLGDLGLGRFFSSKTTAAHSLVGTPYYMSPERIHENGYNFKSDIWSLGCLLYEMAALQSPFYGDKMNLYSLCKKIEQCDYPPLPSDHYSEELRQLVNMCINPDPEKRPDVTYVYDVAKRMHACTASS
Chain of JNK3 (P53779 whole entry, species assumed): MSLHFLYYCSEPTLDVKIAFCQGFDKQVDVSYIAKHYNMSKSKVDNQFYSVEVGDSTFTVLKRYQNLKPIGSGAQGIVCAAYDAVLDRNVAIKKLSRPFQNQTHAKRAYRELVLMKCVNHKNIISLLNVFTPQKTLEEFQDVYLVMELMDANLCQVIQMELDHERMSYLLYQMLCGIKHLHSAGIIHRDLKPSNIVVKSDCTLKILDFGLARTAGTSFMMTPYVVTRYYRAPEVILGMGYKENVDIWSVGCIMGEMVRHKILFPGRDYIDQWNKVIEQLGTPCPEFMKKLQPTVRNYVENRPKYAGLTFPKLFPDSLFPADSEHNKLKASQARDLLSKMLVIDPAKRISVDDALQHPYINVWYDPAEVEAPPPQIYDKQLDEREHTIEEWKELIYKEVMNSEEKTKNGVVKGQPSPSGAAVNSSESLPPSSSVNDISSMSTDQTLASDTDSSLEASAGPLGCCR
Chain of Aurora B (Q96GD4 whole entry): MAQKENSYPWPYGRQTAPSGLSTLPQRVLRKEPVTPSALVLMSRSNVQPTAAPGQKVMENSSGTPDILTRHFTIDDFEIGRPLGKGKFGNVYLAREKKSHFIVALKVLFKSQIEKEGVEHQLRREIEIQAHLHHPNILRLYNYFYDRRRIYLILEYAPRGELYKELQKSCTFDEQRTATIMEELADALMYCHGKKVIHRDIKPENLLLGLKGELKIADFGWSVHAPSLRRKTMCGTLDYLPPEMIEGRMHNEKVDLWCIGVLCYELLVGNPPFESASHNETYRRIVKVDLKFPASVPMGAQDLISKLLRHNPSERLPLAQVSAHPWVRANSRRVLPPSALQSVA
Chain of PRK2 (Q16513 whole entry, species assumed): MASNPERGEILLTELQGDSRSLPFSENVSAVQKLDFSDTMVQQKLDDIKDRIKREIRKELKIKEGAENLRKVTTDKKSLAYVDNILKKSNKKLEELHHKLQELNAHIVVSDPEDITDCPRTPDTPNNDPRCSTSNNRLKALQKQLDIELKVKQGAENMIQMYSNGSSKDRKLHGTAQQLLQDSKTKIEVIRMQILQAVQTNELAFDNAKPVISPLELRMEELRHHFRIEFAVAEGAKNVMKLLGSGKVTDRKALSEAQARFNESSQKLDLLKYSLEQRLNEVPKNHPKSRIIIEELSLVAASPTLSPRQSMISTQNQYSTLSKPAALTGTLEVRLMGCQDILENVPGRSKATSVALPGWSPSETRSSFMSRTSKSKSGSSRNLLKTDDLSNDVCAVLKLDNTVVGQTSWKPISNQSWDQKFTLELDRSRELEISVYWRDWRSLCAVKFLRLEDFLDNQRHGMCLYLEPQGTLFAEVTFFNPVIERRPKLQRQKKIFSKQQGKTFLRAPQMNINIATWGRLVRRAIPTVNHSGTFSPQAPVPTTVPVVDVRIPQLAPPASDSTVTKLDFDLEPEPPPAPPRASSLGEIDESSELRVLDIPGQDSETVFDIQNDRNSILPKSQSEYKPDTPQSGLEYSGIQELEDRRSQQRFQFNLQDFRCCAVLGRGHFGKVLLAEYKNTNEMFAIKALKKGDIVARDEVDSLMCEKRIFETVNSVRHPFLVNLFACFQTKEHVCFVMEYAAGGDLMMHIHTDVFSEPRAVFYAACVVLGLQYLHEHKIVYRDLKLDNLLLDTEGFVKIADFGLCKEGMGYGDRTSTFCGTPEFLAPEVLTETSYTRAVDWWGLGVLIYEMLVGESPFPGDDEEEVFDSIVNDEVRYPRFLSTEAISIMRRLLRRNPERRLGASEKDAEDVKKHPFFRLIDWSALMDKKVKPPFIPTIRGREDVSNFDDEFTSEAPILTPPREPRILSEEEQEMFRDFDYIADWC
Chain of MARK3 (P27448 whole entry, species assumed): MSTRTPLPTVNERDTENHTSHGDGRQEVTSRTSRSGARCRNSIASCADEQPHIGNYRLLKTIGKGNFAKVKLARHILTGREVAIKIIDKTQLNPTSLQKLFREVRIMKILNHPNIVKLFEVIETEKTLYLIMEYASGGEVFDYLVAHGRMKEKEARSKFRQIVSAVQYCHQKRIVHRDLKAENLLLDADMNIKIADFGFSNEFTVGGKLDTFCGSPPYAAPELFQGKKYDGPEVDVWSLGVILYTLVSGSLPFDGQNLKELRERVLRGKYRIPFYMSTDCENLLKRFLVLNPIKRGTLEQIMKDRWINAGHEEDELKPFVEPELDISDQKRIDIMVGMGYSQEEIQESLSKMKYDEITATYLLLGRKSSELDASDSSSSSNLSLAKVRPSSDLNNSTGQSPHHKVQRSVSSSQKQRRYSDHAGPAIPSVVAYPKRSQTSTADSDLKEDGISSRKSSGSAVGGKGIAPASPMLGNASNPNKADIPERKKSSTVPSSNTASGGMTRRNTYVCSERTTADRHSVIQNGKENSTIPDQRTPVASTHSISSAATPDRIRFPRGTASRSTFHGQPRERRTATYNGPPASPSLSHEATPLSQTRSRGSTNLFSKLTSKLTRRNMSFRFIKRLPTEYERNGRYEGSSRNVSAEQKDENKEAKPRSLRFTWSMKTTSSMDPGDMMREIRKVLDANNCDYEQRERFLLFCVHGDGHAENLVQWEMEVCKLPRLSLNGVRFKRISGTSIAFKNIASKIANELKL
Chain of NEK6 (Q9HC98 whole entry, species assumed): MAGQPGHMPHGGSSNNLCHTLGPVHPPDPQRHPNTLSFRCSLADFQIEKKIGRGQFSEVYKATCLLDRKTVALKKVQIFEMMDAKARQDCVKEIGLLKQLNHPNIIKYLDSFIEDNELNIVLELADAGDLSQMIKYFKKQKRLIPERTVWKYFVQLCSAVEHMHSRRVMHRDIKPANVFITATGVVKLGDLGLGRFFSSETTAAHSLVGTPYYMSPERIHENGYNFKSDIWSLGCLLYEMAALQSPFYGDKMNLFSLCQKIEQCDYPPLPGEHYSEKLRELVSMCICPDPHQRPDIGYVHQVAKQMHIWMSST

Q: Which remaining activity at 1 µM (PKD1) does the source give for `N=C(N)NCCC[C@@H](NC(=O)[C@@H](CCCNC(=N)N)NC(=O)[C@@H](CCCNC(=N)N)NC(=O)[C@@H](CCCNC(=N)N)NC(=O)[C@@H](CCCNC(=N)N)NC(=O)[C@@H](CCCNC(=N)N)NC(=O)CCCCCNC(=O)[C@H]1O[C@@H](n2cnc3c(N)ncnc32)[C@H](O)[C@@H]1O)C(N)=O` [Compound 5, AdcAhx(D-Arg)6-NH2] here?
A: The remaining activity at 1 µM was 54%.

Q: And the remaining activity at 1 µM (NEK6)?
A: Its remaining activity at 1 µM is 94%.

Q: What about the remaining activity at 1 µM (NEK7) of the same molecule?
A: Its remaining activity at 1 µM is 58%.

Q: And the remaining activity at 1 µM (Aurora B)?
A: Its remaining activity at 1 µM is 103%.

Q: And the remaining activity at 1 µM (MARK3)?
A: Its remaining activity at 1 µM is 40%.

Q: What about the remaining activity at 1 µM (PKCa) of the same molecule?
A: The remaining activity at 1 µM was 31%.

Q: And the remaining activity at 1 µM (NEK2a)?
A: Its remaining activity at 1 µM is 82%.

Q: What about the remaining activity at 1 µM (SRPK1) of the same molecule?
A: The remaining activity at 1 µM was 100%.

Q: What about the remaining activity at 1 µM (JNK3) of the same molecule?
A: Its remaining activity at 1 µM is 91%.

Q: What about the remaining activity at 1 µM (PRK2) of the same molecule?
A: The remaining activity at 1 µM was 2%.

Q: What about the “residual activity (%) MAPKAP-K1b/rsk-2” value (MAPKAP-K1b/rsk-2; inhibitor 1 μM) of the same molecule?
A: The value was 12 (±0) %.

Q: And the remaining activity at 1 µM (MAPKAP-K1b/rsk-2; read-out: residual activity (%) MAPKAP-K1b/rsk-2, inhibitor 1 μM)?
A: The remaining activity at 1 µM was 7 to 28%.

Q: What about the remaining activity at 1 µM (CHK1) of the same molecule?
A: The remaining activity at 1 µM was 16%.

Q: How did the “residual activity (%) PKD1” value (PKD1; inhibitor 1 μM, ATP 50 μM) turn out when `N=C(N)NCCC[C@@H](NC(=O)[C@@H](CCCNC(=N)N)NC(=O)[C@@H](CCCNC(=N)N)NC(=O)[C@@H](CCCNC(=N)N)NC(=O)[C@@H](CCCNC(=N)N)NC(=O)[C@@H](CCCNC(=N)N)NC(=O)CCCCCNCCNS(=O)(=O)c1cccc2cnccc12)C(N)=O` [Compound 26, H9-Hex(D-Arg)6-NH2] was run?
A: Its value is 9 (±1) %.

Q: What about the remaining activity at 1 µM (PKD1; inhibitor 1 μM, ATP 50 μM) of the same molecule?
A: Its remaining activity at 1 µM is less than 10%.

Q: And the remaining activity at 1 µM (NEK6; inhibitor 1 μM, ATP 50 μM)?
A: The remaining activity at 1 µM was 100%.

Q: What about the remaining activity at 1 µM (NEK7; inhibitor 1 μM, ATP 20 μM) of the same molecule?
A: The remaining activity at 1 µM was 56%.

Q: And the remaining activity at 1 µM (Aurora B; inhibitor 1 μM, ATP 20 μM)?
A: The remaining activity at 1 µM was 53%.

Q: And the remaining activity at 1 µM (MARK3; inhibitor 1 μM, ATP 5 μM)?
A: The remaining activity at 1 µM was 53%.

Q: And the remaining activity at 1 µM (PKCa; inhibitor 1 μM, ATP 20 μM)?
A: The remaining activity at 1 µM was 15%.

Q: And the remaining activity at 1 µM (NEK2a; inhibitor 1 μM, ATP 50 μM)?
A: The remaining activity at 1 µM was 98%.

Q: What about the remaining activity at 1 µM (SRPK1; inhibitor 1 μM, ATP 50 μM) of the same molecule?
A: Its remaining activity at 1 µM is 99%.

Q: And the remaining activity at 1 µM (JNK3; inhibitor 1 μM, ATP 50 μM)?
A: Its remaining activity at 1 µM is 92%.

Q: What about the remaining activity at 1 µM (PRK2; inhibitor 1 μM, ATP 5 μM) of the same molecule?
A: Its remaining activity at 1 µM is 2%.

Q: And the remaining activity at 1 µM (MAPKAP-K1b/rsk-2; inhibitor 1 μM, read-out: residual activity (%) MAPKAP-K1b/rsk-2)?
A: The remaining activity at 1 µM was 2%.

Q: And the remaining activity at 1 µM (CHK1; inhibitor 1 μM, ATP 20 μM)?
A: The remaining activity at 1 µM was 31%.
